The record followed here is article PMC12013513 (2025).

The labels stand for the following.
B1: GST-ANI-1^C-term (681-1159 AA) [C. elegans] / 10xHis-RHO-1^WT (wild type RHO-1, 1-188 AA) [C. elegans] (parent complex)
chain 1: DDDATTQFPVPERSRKSSSQLAYSVSFYRKIQRDRNEESSTVLAGPVISQISPSAPPMSSSLTSQQKLRQLTTGPANGARIVESAKDAHDRIKRAIQVEEQLVAQSKRAMILARDKPSFRGSREEFEAQWAMLRHVEKHRALLTEYDRLKRDGPRIIDGPRGTITVSQLSVNMARDYVSANIASSKKSDEVFYFAAILRYGEQVDVSKMVTSDGGLNRRGVLEFPVPLMLTGIPPDFRATVEIYGQRSMRESTSHEDKYKLKNSTFKAKTRNTFLGGGSTSSANQSLFVDPAASSSSTSSTTSNFNLLGTFSFDINCPGKHLYNMSHTVYPLEGITQMKVRKQAIDGADITYHGFLSMYQRTGEGLGSWTRYWCALENGEMKFWKQPEDEGTKGYTALMDLSTCCRSEGASVVEDICPFPNSFHIDVWAPKMDTSDPRGIERLRVMLAADTAQDLQTWLSLINSTSKQLCTWRNPIVNQ
chain 2: not shown

This assay covers variants of B1. Description: pull-down; parent: 14; read off a plot.
In the case of chain 1 A109D, chain 1 E127K, the response is ~17 % of Bound RHO-1.
